Test results published in IntAct's records for PubMed 29125462.

B1: RILP-like protein 1 (Homo sapiens), Q5EBL4 (parent)
chain: MEEERGSALAAESALEKNVAELTVMDVYDIASLVGHEFERVIDQHGCEAIARLMPKVVRVLEILEVLVSRHHVAPELDELRLELDRLRLERMDRIEKERKHQKELELVEDVWRGEAQDLLSQIAQLQEENKQLMTNLSHKDVNFSEEEFQKHEGMSERERQVMKKLKEVVDKQRDEIRAKDRELGLKNEDVEALQQQQTRLMKINHDLRHRVTVVEAQGKALIEQKVELEADLQTKEQEMGSLRAELGKLRERLQGEHSQNGEEEPETEPVGEESISDAEKVAMDLKDPNRPRFTLQELRDVLHERNELKSKVFLLQEELAYYKSEEMEEENRIPQPPPIAHPRTSPQPESGIKRLFSFFSRDKKRLANTQRNVHIQESFGQWANTHRDDGYTEQGQEALQHL
B2: RILP-like protein 2 (Homo sapiens), Q969X0 (parent)
chain: MEEPPVREEEEEEGEEDEERDEVGPEGALGKSPFQLTAEDVYDISYLLGRELMALGSDPRVTQLQFKVVRVLEMLEALVNEGSLALEELKMERDHLRKEVEGLRRQSPPASGEVNLGPNKMVVDLTDPNRPRFTLQELRDVLQERNKLKSQLLVVQEELQCYKSGLIPPREGPGGRREKDAVVTSAKNAGRNKEEKTIIKKLFFFRSGKQT

Variants of: B1
Conditions: with rab8a_human RAB8A

Row | effect of a mutation on the interaction | Variant
1 | disrupting interaction strength | MEEERGSALAAESALEKNVAELTVMDVYDIASLVGHEFERVIDQHGCEAIARLMPKVVRVLEILEVLVSRHHVAPELDELRLELDRLRLERMDRIEKERKHQKELELVEDVWRGEAQDLLSQIAQLQEENKQLMTNLSHKDVNFSEEEFQKHEGMSERERQVMKKLKEVVDKQRDEIRAKDRELGLKNEDVEALQQQQTRLMKINHDLRHRVTVVEAQGKALIEQKVELEADLQTKEQEMGSLRAELGKLRERLQGEHSQNGEEEPETEPVGEESISDAEKVAMDLKDPNEPRFTLQELRDVLHERNELKSKVFLLQEELAYYKSEEMEEENRIPQPPPIAHPRTSPQPESGIKRLFSFFSRDKKRLANTQRNVHIQESFGQWANTHRDDGYTEQGQEALQHL [R291E]
2 | disrupting interaction strength | MEEERGSALAAESALEKNVAELTVMDVYDIASLVGHEFERVIDQHGCEAIARLMPKVVRVLEILEVLVSRHHVAPELDELRLELDRLRLERMDRIEKERKHQKELELVEDVWRGEAQDLLSQIAQLQEENKQLMTNLSHKDVNFSEEEFQKHEGMSERERQVMKKLKEVVDKQRDEIRAKDRELGLKNEDVEALQQQQTRLMKINHDLRHRVTVVEAQGKALIEQKVELEADLQTKEQEMGSLRAELGKLRERLQGEHSQNGEEEPETEPVGEESISDAEKVAMDLKDPNRPRFTLQELRDVLHERNELESKVFLLQEELAYYKSEEMEEENRIPQPPPIAHPRTSPQPESGIKRLFSFFSRDKKRLANTQRNVHIQESFGQWANTHRDDGYTEQGQEALQHL [K310E]
3 | disrupting interaction strength | MEEERGSALAAESALEKNVAELTVMDVYDIASLVGHEFERVIDQHGCEAIARLMPKVVRVLEILEVLVSRHHVAPELDELRLELDRLRLERMDRIEKERKHQKELELVEDVWRGEAQDLLSQIAQLQEENKQLMTNLSHKDVNFSEEEFQKHEGMSERERQVMKKLKEVVDKQRDEIRAKDRELGLKNEDVEALQQQQTRLMKINHDLRHRVTVVEAQGKALIEQKVELEADLQTKEQEMGSLRAELGKLRERLQGEHSQNGEEEPETEPVGEESISDAEKVAMDLKDPNRPEFTLQELRDVLHERNELKSKVFLLQEELAYYKSEEMEEENRIPQPPPIAHPRTSPQPESGIKRLFSFFSRDKKRLANTQRNVHIQESFGQWANTHRDDGYTEQGQEALQHL [R293E]

Variants of: B2
Conditions: with rab8a_human RAB8A

Row | effect of a mutation on the interaction | Variant
4 | disrupting interaction strength | MEEPPVREEEEEEGEEDEERDEVGPEGALGKSPFQLTAEDVYDISYLLGRELMALGSDPRVTQLQFKVVRVLEMLEALVNEGSLALEELKMERDHLRKEVEGLRRQSPPASGEVNLGPNKMVVDLTDPNRPRFTLQELRDVLQERNKLESQLLVVQEELQCYKSGLIPPREGPGGRREKDAVVTSAKNAGRNKEEKTIIKKLFFFRSGKQT [K149E]
5 | disrupting interaction strength | MEEPPVREEEEEEGEEDEERDEVGPEGALGKSPFQLTAEDVYDISYLLGRELMALGSDPRVTQLQFKVVRVLEMLEALVNEGSLALEELKMERDHLRKEVEGLRRQSPPASGEVNLGPNKMVVDLTDPNEPRFTLQELRDVLQERNKLKSQLLVVQEELQCYKSGLIPPREGPGGRREKDAVVTSAKNAGRNKEEKTIIKKLFFFRSGKQT [R130E]
6 | disrupting interaction strength | MEEPPVREEEEEEGEEDEERDEVGPEGALGKSPFQLTAEDVYDISYLLGRELMALGSDPRVTQLQFKVVRVLEMLEALVNEGSLALEELKMERDHLRKEVEGLRRQSPPASGEVNLGPNKMVVDLTDPNRPEFTLQELRDVLQERNKLKSQLLVVQEELQCYKSGLIPPREGPGGRREKDAVVTSAKNAGRNKEEKTIIKKLFFFRSGKQT [R132E]
